One molecule from paper PMC13507320, “Synergistic effect of PIP2 and PIP3 on membrane-induced phase separation of integrin complexes” (Biophysical Journal, 2025) can be followed below.

The target in experiment [1] is T1, Atto643-labeled his6-β1 integrin cytoplasmic tail peptide (UniProt P05556 752-798, Atto643 label (position not given)).
T1 construct: integrin β1 cytoplasmic tail; Tethered by its his6 tag to DGS-NTA-Ni lipids of the supported lipid bilayer; also called β1 tails; his6-tagged integrin β1 tails; source: synthetic peptide (synthesized and purified by the MPIB Core Facility)
T1 peptide (looked up): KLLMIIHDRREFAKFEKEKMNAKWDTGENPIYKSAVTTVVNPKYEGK
Briefly: FRAP of the tethered partner on supported lipid bilayers (slowdown of diffusion); his6-β1 tails tethered to DGS-NTA-Ni on 5% PIP2 supported lipid bilayer; 1 μM kindlin or 1 μM talin, 30-min incubation; HEPES buffer pH 7.4, 150 mM KCl, 2.5 μM ZnCl2; t1/2_fast against β1 tails alone. The note with it: both partners purified.

For experiment [2], the target named is T1, Atto643-labeled his6-β1 integrin …. Briefly: FRAP of the tethered partner on supported lipid bilayers (slowdown of diffusion); his6-β1 tails tethered to DGS-NTA-Ni on 5% PIP3 supported lipid bilayer; 1 μM kindlin or 1 μM talin, 30-min incubation; HEPES buffer pH 7.4, 150 mM KCl, 2.5 μM ZnCl2; t1/2_fast against β1 tails alone. The note with it: both partners purified.

B1: Kindlin-2 (natural protein, UniProt Q96AC1 1-680, looked up)
chain: MALDGIRMPDGCYADGTWELSVHVTDLNRDVTLRVTGEVHIGGVMLKLVEKLDVKKDWSDHALWWEKKRTWLLKTHWTLDKYGIQADAKLQFTPQHKLLRLQLPNMKYVKVKVNFSDRVFKAVSDICKTFNIRHPEELSLLKKPRDPTKKKKKKLDDQSEDEALELEGPLITPGSGSIYSSPGLYSKTMTPTYDAHDGSPLSPTSAWFGDSALSEGNPGILAVSQPITSPEILAKMFKPQALLDKAKINQGWLDSSRSLMEQDVKENEALLLRFKYYSFFDLNPKYDAIRINQLYEQAKWAILLEEIECTEEEMMMFAALQYHINKLSIMTSENHLNNSDKEVDEVDAALSDLEITLEGGKTSTILGDITSIPELADYIKVFKPKKLTLKGYKQYWCTFKDTSISCYKSKEESSGTPAHQMNLRGCEVTPDVNISGQKFNIKLLIPVAEGMNEIWLRCDNEKQYAHWMAACRLASKGKTMADSSYNLEVQNILSFLKMQHLNPDPQLIPEQITTDITPECLVSPRYLKKYKNKQITARILEAHQNVAQMSLIEAKMRFIQAWQSLPEFGITHFIARFQGGKKEELIGIAYNRLIRMDASTGDAIKTWRFSNMKQWNVNWEIKMVTVEFADEVRLSFICTEVDCKVVHEFIGGYIFLSTRAKDQNESLDEEMFYKLTSGWV
notes: Kindlin-2; the species may be mouse there; source: E. coli (DE3) Rosetta 2, purified (Ni-NTA IMAC, SenP2 digest, size-exclusion chromatography); not shown: His-SUMO, N-terminal, cleaved
B1: the figures for the “fold slowdown of β1 tail diffusion against β1 tails alone” value in experiment [1] and in experiment [2] were 2.6 times and 3.3 times, respectively.
